Target: mixture of three Der p 2 specific recombinant human IgE clones H10, H12, P4E (human) (UniProt P01854)
Test: RBL-SX38 IgE displacement, FACS

Sequence of mixture of three Der p 2 specific recombinant human IgE clones H10, H12, P4E (human) (P01854 other isoform, or with tags, fused parts or gaps): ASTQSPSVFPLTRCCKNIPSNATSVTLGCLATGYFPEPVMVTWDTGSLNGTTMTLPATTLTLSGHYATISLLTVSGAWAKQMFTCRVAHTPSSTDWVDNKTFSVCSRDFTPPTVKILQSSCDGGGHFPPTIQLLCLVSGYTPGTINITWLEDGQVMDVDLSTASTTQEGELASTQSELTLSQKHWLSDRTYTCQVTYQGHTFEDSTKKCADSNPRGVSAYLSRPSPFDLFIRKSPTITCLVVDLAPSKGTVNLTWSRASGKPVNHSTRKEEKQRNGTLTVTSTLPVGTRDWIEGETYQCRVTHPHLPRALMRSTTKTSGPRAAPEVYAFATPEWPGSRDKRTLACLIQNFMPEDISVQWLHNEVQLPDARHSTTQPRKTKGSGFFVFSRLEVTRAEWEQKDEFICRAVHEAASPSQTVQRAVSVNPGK

| Binder | EC50 [nM] | Max effect/effect 1 µM [%] |
| --- | --- | --- |
| NIgG4B1A2(RS) (Fc fusion) chain 1: QVQLQESGGGLVQTGGSLRLSCAVHGRTFSNTGMGWFRQAPGNERQFVAIISPSGTSTYYADSVKGRFTISRDPAKNTVYLQMNSLKMDDTAVYYCAASYGSNWSTLRHQRRNEYDAWGQGTQVAVSRSGPPCPPCPAPEFLGGPSVFLFPPKPKDTLMISRTPEVTCVVVDVSQEDPEVQFNWYVDGVEVHNAKTKPREEQFNSTYRVVSVLTVLHQDWLNGKEYKCKVSNKGLPSSIEKTISKAKGQPREPQVYTLPPCQEEMTKNQVSLWCLVKGFYPSDIAVEWESNGQPENNYKTTPPVLDSDGSFFLYSRLTVDKSRWQEGNVFSCSVMHEALHNHYTQKSLSLSLGK chain 2: EVQLLESGGGLVQPGGSLRLSCAASGFRFGNYDMAWVRQAPGKRYEWVSSIDTGGDITHYADSVKGRFTISRDNAKNTLYLQMNSLRPEDTAEYWCATDEEYALGPNEFDYYGQGTLVTVSRSGPPCPPCPAPEFLGGPSVFLFPPKPKDTLMISRTPEVTCVVVDVSQEDPEVQFNWYVDGVEVHNAKTKPREEQFNSTYRVVSVLTVLHQDWLNGKEYKCKVSNKGLPSSIEKTISKAKGQPREPQVCTLPPSQEEMTKNQVSLSCAVKGFYPSDIAVEWESNGQPENNYKTTPPVLDSDGSFFLVSRLTVDKSRWQEGNVFSCSVMHEALHNHYTQKSLSLSLGK | 0.6 | 99 |
| NIgG4B1A2(G4S)1 (Fc fusion) chain 1: QVQLQESGGGLVQTGGSLRLSCAVHGRTFSNTGMGWFRQAPGNERQFVAIISPSGTSTYYADSVKGRFTISRDPAKNTVYLQMNSLKMDDTAVYYCAASYGSNWSTLRHQRRNEYDAWGQGTQVAVSGGGGSGPPCPPCPAPEFLGGPSVFLFPPKPKDTLMISRTPEVTCVVVDVSQEDPEVQFNWYVDGVEVHNAKTKPREEQFNSTYRVVSVLTVLHQDWLNGKEYKCKVSNKGLPSSIEKTISKAKGQPREPQVYTLPPCQEEMTKNQVSLWCLVKGFYPSDIAVEWESNGQPENNYKTTPPVLDSDGSFFLYSRLTVDKSRWQEGNVFSCSVMHEALHNHYTQKSLSLSLGK chain 2: EVQLLESGGGLVQPGGSLRLSCAASGFRFGNYDMAWVRQAPGKRYEWVSSIDTGGDITHYADSVKGRFTISRDNAKNTLYLQMNSLRPEDTAEYWCATDEEYALGPNEFDYYGQGTLVTVSGGGGSGPPCPPCPAPEFLGGPSVFLFPPKPKDTLMISRTPEVTCVVVDVSQEDPEVQFNWYVDGVEVHNAKTKPREEQFNSTYRVVSVLTVLHQDWLNGKEYKCKVSNKGLPSSIEKTISKAKGQPREPQVCTLPPSQEEMTKNQVSLSCAVKGFYPSDIAVEWESNGQPENNYKTTPPVLDSDGSFFLVSRLTVDKSRWQEGNVFSCSVMHEALHNHYTQKSLSLSLGK | 0.4 | 100 |
| CIgG4B3A1(G4S)2 (Fc fusion) chain 1: GPPCPPCPAPEFLGGPSVFLFPPKPKDTLMISRTPEVTCVVVDVSQEDPEVQFNWYVDGVEVHNAKTKPREEQFNSTYRVVSVLTVLHQDWLNGKEYKCKVSNKGLPSSIEKTISKAKGQPREPQVYTLPPCQEEMTKNQVSLWCLVKGFYPSDIAVEWESNGQPENNYKTTPPVLDSDGSFFLYSRLTVDKSRWQEGNVFSCSVMHEALHNHYTQKSLSLSLGKGGGGSGGGGSDVQLQESGGGLVQAGGSLRLSCAASGFIFRLAGMSWVRQAPGKGFEWVSGITMDGSTTNYADSVKGRFTISRDNSKNRLYLQMNSLKPEDTAVYYCARGAKGGYNDPRGQGTQVTVS chain 2: GPPCPPCPAPEFLGGPSVFLFPPKPKDTLMISRTPEVTCVVVDVSQEDPEVQFNWYVDGVEVHNAKTKPREEQFNSTYRVVSVLTVLHQDWLNGKEYKCKVSNKGLPSSIEKTISKAKGQPREPQVCTLPPSQEEMTKNQVSLSCAVKGFYPSDIAVEWESNGQPENNYKTTPPVLDSDGSFFLVSRLTVDKSRWQEGNVFSCSVMHEALHNHYTQKSLSLSLGKGGGGSGGGGSEVQLLESGGGLVQPGGSLRLSCAASGFTFGNYDMAWVRQAPGKRPEWVSSIDTGGDITHYADSVKGRFTISRDNAKNTLYLQMNSLRPEDTAVYWCATDEEYALGPNEFDYYGQGTLVTVSS | – | 28 |
| CIgG4B3A1(G4S)3 (Fc fusion) chain 1: GPPCPPCPAPEFLGGPSVFLFPPKPKDTLMISRTPEVTCVVVDVSQEDPEVQFNWYVDGVEVHNAKTKPREEQFNSTYRVVSVLTVLHQDWLNGKEYKCKVSNKGLPSSIEKTISKAKGQPREPQVYTLPPCQEEMTKNQVSLWCLVKGFYPSDIAVEWESNGQPENNYKTTPPVLDSDGSFFLYSRLTVDKSRWQEGNVFSCSVMHEALHNHYTQKSLSLSLGKGGGGSGGGGSGGGGSDVQLQESGGGLVQAGGSLRLSCAASGFIFRLAGMSWVRQAPGKGFEWVSGITMDGSTTNYADSVKGRFTISRDNSKNRLYLQMNSLKPEDTAVYYCARGAKGGYNDPRGQGTQVTVS chain 2: GPPCPPCPAPEFLGGPSVFLFPPKPKDTLMISRTPEVTCVVVDVSQEDPEVQFNWYVDGVEVHNAKTKPREEQFNSTYRVVSVLTVLHQDWLNGKEYKCKVSNKGLPSSIEKTISKAKGQPREPQVCTLPPSQEEMTKNQVSLSCAVKGFYPSDIAVEWESNGQPENNYKTTPPVLDSDGSFFLVSRLTVDKSRWQEGNVFSCSVMHEALHNHYTQKSLSLSLGKGGGGSGGGGSGGGGSEVQLLESGGGLVQPGGSLRLSCAASGFTFGNYDMAWVRQAPGKRPEWVSSIDTGGDITHYADSVKGRFTISRDNAKNTLYLQMNSLRPEDTAVYWCATDEEYALGPNEFDYYGQGTLVTVSS | – | 76 |
| NIgG4B3A1(G4S)1 (Fc fusion) chain 1: DVQLQESGGGLVQAGGSLRLSCAASGFIFRLAGMSWVRQAPGKGFEWVSGITMDGSTTNYADSVKGRFTISRDNSKNRLYLQMNSLKPEDTAVYYCARGAKGGYNDPRGQGTQVTVSGGGGSGPPCPPCPAPEFLGGPSVFLFPPKPKDTLMISRTPEVTCVVVDVSQEDPEVQFNWYVDGVEVHNAKTKPREEQFNSTYRVVSVLTVLHQDWLNGKEYKCKVSNKGLPSSIEKTISKAKGQPREPQVYTLPPCQEEMTKNQVSLWCLVKGFYPSDIAVEWESNGQPENNYKTTPPVLDSDGSFFLYSRLTVDKSRWQEGNVFSCSVMHEALHNHYTQKSLSLSLGK chain 2: EVQLLESGGGLVQPGGSLRLSCAASGFTFGNYDMAWVRQAPGKRPEWVSSIDTGGDITHYADSVKGRFTISRDNAKNTLYLQMNSLRPEDTAVYWCATDEEYALGPNEFDYYGQGTLVTVSSGGGGSGPPCPPCPAPEFLGGPSVFLFPPKPKDTLMISRTPEVTCVVVDVSQEDPEVQFNWYVDGVEVHNAKTKPREEQFNSTYRVVSVLTVLHQDWLNGKEYKCKVSNKGLPSSIEKTISKAKGQPREPQVCTLPPSQEEMTKNQVSLSCAVKGFYPSDIAVEWESNGQPENNYKTTPPVLDSDGSFFLVSRLTVDKSRWQEGNVFSCSVMHEALHNHYTQKSLSLSLGK | – | 94 |

The remaining lines, values ahead:

| EC50 [nM] | Max effect/effect 1 µM [%] | Binder |
| --- | --- | --- |
| – | 94 | NIgG4B3A1(RS) (Fc fusion) chain 1: DVQLQESGGGLVQAGGSLRLSCAASGFIFRLAGMSWVRQAPGKGFEWVSGITMDGSTTNYADSVKGRFTISRDNSKNRLYLQMNSLKPEDTAVYYCARGAKGGYNDPRGQGTQVTVSRSGPPCPPCPAPEFLGGPSVFLFPPKPKDTLMISRTPEVTCVVVDVSQEDPEVQFNWYVDGVEVHNAKTKPREEQFNSTYRVVSVLTVLHQDWLNGKEYKCKVSNKGLPSSIEKTISKAKGQPREPQVYTLPPCQEEMTKNQVSLWCLVKGFYPSDIAVEWESNGQPENNYKTTPPVLDSDGSFFLYSRLTVDKSRWQEGNVFSCSVMHEALHNHYTQKSLSLSLGK chain 2: EVQLLESGGGLVQPGGSLRLSCAASGFTFGNYDMAWVRQAPGKRPEWVSSIDTGGDITHYADSVKGRFTISRDNAKNTLYLQMNSLRPEDTAVYWCATDEEYALGPNEFDYYGQGTLVTVSSRSGPPCPPCPAPEFLGGPSVFLFPPKPKDTLMISRTPEVTCVVVDVSQEDPEVQFNWYVDGVEVHNAKTKPREEQFNSTYRVVSVLTVLHQDWLNGKEYKCKVSNKGLPSSIEKTISKAKGQPREPQVCTLPPSQEEMTKNQVSLSCAVKGFYPSDIAVEWESNGQPENNYKTTPPVLDSDGSFFLVSRLTVDKSRWQEGNVFSCSVMHEALHNHYTQKSLSLSLGK |
| – | 93 | NIgG4B3A1(G4S)3 (Fc fusion) chain 1: DVQLQESGGGLVQAGGSLRLSCAASGFIFRLAGMSWVRQAPGKGFEWVSGITMDGSTTNYADSVKGRFTISRDNSKNRLYLQMNSLKPEDTAVYYCARGAKGGYNDPRGQGTQVTVSGGGGSGGGGSGGGGSGPPCPPCPAPEFLGGPSVFLFPPKPKDTLMISRTPEVTCVVVDVSQEDPEVQFNWYVDGVEVHNAKTKPREEQFNSTYRVVSVLTVLHQDWLNGKEYKCKVSNKGLPSSIEKTISKAKGQPREPQVYTLPPCQEEMTKNQVSLWCLVKGFYPSDIAVEWESNGQPENNYKTTPPVLDSDGSFFLYSRLTVDKSRWQEGNVFSCSVMHEALHNHYTQKSLSLSLGK chain 2: EVQLLESGGGLVQPGGSLRLSCAASGFTFGNYDMAWVRQAPGKRPEWVSSIDTGGDITHYADSVKGRFTISRDNAKNTLYLQMNSLRPEDTAVYWCATDEEYALGPNEFDYYGQGTLVTVSSGGGGSGGGGSGGGGSGPPCPPCPAPEFLGGPSVFLFPPKPKDTLMISRTPEVTCVVVDVSQEDPEVQFNWYVDGVEVHNAKTKPREEQFNSTYRVVSVLTVLHQDWLNGKEYKCKVSNKGLPSSIEKTISKAKGQPREPQVCTLPPSQEEMTKNQVSLSCAVKGFYPSDIAVEWESNGQPENNYKTTPPVLDSDGSFFLVSRLTVDKSRWQEGNVFSCSVMHEALHNHYTQKSLSLSLGK |
| – | 94 | NIgG4B3A1(G4S)2 (Fc fusion) chain 1: DVQLQESGGGLVQAGGSLRLSCAASGFIFRLAGMSWVRQAPGKGFEWVSGITMDGSTTNYADSVKGRFTISRDNSKNRLYLQMNSLKPEDTAVYYCARGAKGGYNDPRGQGTQVTVSGGGGSGGGGSGPPCPPCPAPEFLGGPSVFLFPPKPKDTLMISRTPEVTCVVVDVSQEDPEVQFNWYVDGVEVHNAKTKPREEQFNSTYRVVSVLTVLHQDWLNGKEYKCKVSNKGLPSSIEKTISKAKGQPREPQVYTLPPCQEEMTKNQVSLWCLVKGFYPSDIAVEWESNGQPENNYKTTPPVLDSDGSFFLYSRLTVDKSRWQEGNVFSCSVMHEALHNHYTQKSLSLSLGK chain 2: EVQLLESGGGLVQPGGSLRLSCAASGFTFGNYDMAWVRQAPGKRPEWVSSIDTGGDITHYADSVKGRFTISRDNAKNTLYLQMNSLRPEDTAVYWCATDEEYALGPNEFDYYGQGTLVTVSSGGGGSGGGGSGPPCPPCPAPEFLGGPSVFLFPPKPKDTLMISRTPEVTCVVVDVSQEDPEVQFNWYVDGVEVHNAKTKPREEQFNSTYRVVSVLTVLHQDWLNGKEYKCKVSNKGLPSSIEKTISKAKGQPREPQVCTLPPSQEEMTKNQVSLSCAVKGFYPSDIAVEWESNGQPENNYKTTPPVLDSDGSFFLVSRLTVDKSRWQEGNVFSCSVMHEALHNHYTQKSLSLSLGK |

Source: patent US20250171562A1
